Experiment [1] concerns the target EhRGS-RhoGEF (Entamoeba histolytica). Briefly: SPR. On the technique in general: Surface plasmon resonance follows binding to a sensor surface in real time, without labels.
Experiment [2] deals with GST-EhGα1 (Entamoeba histolytica). Nature of the experiment: SPR.

Substance “EhRacC(Q65L) (from UniProt Q24816 1-194) (natural protein)” had an equilibrium dissociation constant (Kd) in experiment [1] of 34 µM. This counts as double-digit micromolar.

In the case of EhRGS-RhoGEF (natural protein), in experiment [2], the Kd worked out at 5.7 µM.

In experiment [1], EhGα1(Q189L) (natural protein) showed a dissociation constant (Kd) of 110 µM.

EhGα1 (natural protein): the Kd in experiment [1] was 5.2 µM.

Broadly, the Kd is the equilibrium constant for the complex coming apart. A lower Kd goes with tighter binding.

The values above are taken from article PMC3545058.
